Results from publication PMC9542132.
One block for each molecule: values may come before it.

Key:
[1] = target: CdvB1 from Metallosphaera sedula, MBP tag cleaved off with 3C protease (Metallosphaera sedula); assay: co-sedimentation; 1 uM MBP-CdvB1 with 0.1 uM 3C protease, 50 mM HEPES pH 7.4, 50 mM NaCl, 5 mM MgCl2, Ficoll 41.25 mg/mL, overnight at 4 °C; 0.6 uM CdvC added, nucleotide or buffer, 2 min at 50 °C; 140 000 g 30 min at 4 °C; pellet and supernatant on SDS/PAGE
[2] = target: CdvB1 from Metallosphaera sedula, MBP tag cleaved off with 3C protease (Metallosphaera sedula)
[3] = target: CdvB1 from Metallosphaera sedula, MBP tag cleaved off with 3C protease (Metallosphaera sedula); remark: listed apart in the source

filament-to-monomer ratio (with CdvC and ADP or ATPγS, no hydrolysable nucleotide) [1]: 2
Molecule: CdvB1 from Metallosphaera sedula, MBP tag cleaved off with 3C protease (natural protein)

ATP consumed by CdvC (0.1 uM) in 25 min at 50 °C with CdvB1 filaments (1 uM) against CdvC alone [2]: 8 fold | filament-to-monomer (pellet-to-supernatant) ratio of CdvB1 in the sedimentation assay after CdvC with ATP, 2 min at 50 °C [3]: 0.1
B1: CdvC from Metallosphaera sedula (enzyme)
chain: MSAQVMLEEMARKYAIAAVRADKEGRREDAINNYKKAIEVLTQIVTLYPDMVARNAYEQMINEYKKRLETLNQMVPEGGEETEKAEEDIVMKEKPKVTLNEIVGLEDVKEALKEAVVYPSKRPDLFPLGWPRGILLYGPPGCGKTMIAAAVANELDSEFIHVDAASIMSKWLGEAEKNVAKIFKTARELSKKENKPAIIFIDELDALLASYTSEVGGEARVRNQFLKEMDGLADKNEISKVYVIGATNKPWRLDEPFLRRFQKRIYITLPDKAHRLELLKHYSSKVKLDPNVNLEELAELTDGYTASDIRDIVQSAHMRVVKEMFEKNLQEPRAINMDDFREVLKVRKPSVNQDMLKAYAAWHEKFKAL
